In PMC2112520 one finds percent of added 125I-PDGF bound data, which are given here for one substance.

The target in the assay is 125I-PDGF plasma-binding protein of human plasma (about 280,000 mol wt) (human (endogenous in plasma)).

For the substance “125I-labelled human platelet-derived growth factor II (from UniProt P04085 87-211; P01127 82-190) (ligand)”, the percent of added 125I-PDGF bound fell in the range of 10 to 20%.
